Reference: patent publication US11866736B2, “Protein prostheses for mitochondrial diseases or conditions” (The General Hospital Corporation, priority 2015, dated 2024)

Tests used:
[1] = Continuous assay of H2O2 production (Amplex Red/HRP/SOD); assay type: biochemical
Experimental: Reaction mixture contained: 50 mM NaPi pH 7.5, 150 mM NaCl buffer, 350 μM NADH, SOD 130U and 100 μM D-glucose at 37° C. At times indicated LbNOX and glucose oxidase were added. Glucose oxidase was used to validate the assay, since this enzyme produces H2O2 from oxygen and D-glucose. Rates on H2O2-forming activity of LbNOX were compared to rates of NADH disappearance in parallel experiments. It was estimated that around 1.7±0.3% of H2O2 is produced by LbNOX (n=4).
H2O2 production was monitored in a continuous assay followed by the increase in absorbance at 570 nm upon resorufin formation (ε570=54 mM^−1 cm^−1). It was shown previously that presence of NADH in the assay mixture results in the oxidation of AMPLEX® Red dye in the HRP-dependent manner and this process is greatly diminished by supplementation of superoxide dismutase (SOD) (Votyakova, et al., Arch. Biochem. Biophys., 431:138, 2004). […] The reaction was preincubated at 37° C. for 3 min before LbNOX was added (0.15 μg) and subsequently after LbNOX-dependent rate of H2O2 production was recorded, 4 U of glucose oxidase (Sigma, G2133-10 KU) was added (FIG. 6). […] H2O2-forming activity of LbNOX was compared to the total NADH oxidase activity which was determined in a parallel experiment when the decrease of NADH absorbance at 340 nm was monitored under identical conditions.

HeLa Tet3G cells = assay: Cell proliferation assays: rescue of the proliferation defect induced by respiratory chain inhibitors (nuclei counting); assay type: cell-based, human; conditions: no pyruvate, doxycycline-inducible expression; for rescue of proliferation defect caused by piericidin: 1 μM piericidin
Experimental: Five hundred HeLa Tet3G NDI1, Luciferase, LbNOX or mitoLbNOX cells were seeded in 200 μl of DMEM (DMEM (US Biological, D9800), 3.7 g/L NaHCO3, 10% dialyzed FBS (Life Technologies, 26400-044)) per well in a black 96-well plate with clear bottom (Corning, 3904). Twenty four hours after seeding, media was exchanged to DMEM without pyruvate (DMEM (US Biological, D9802), 15.9 mg/L phenol red, 3.7 g/L NaHCO3, 10% dialyzed FBS (Life Technologies, 26400-044))±10 μg/ml chloramphenicol±30 ng/ml ethidium bromide±1 mM pyruvate±300 ng/ml doxycycline. After 0, 2, 3, 4, 5 and 6 days, media was aspirated and cells were fixed by adding 100 μl of 4% paraformaldehyde in PBS and incubating at room temperature for at least 30 min. Paraformaldehyde solution was aspirated and cells were stained with 200 μl of 1 μg/ml Hoechst 33345 in PBS. Plates were covered with sealing aluminum foil and stored at 4° C. before counting cells in each well with Molecular Dynamics IMAGEXPRESS® Ultra (see “Nuclei counting using Molecular Devices IMAGEXPRESS® Ultra,” below).
One thousand HeLa Tet3G NDI1, Luciferase, LbNOX or mitoLbNOX cells were seeded in 200 μl of DMEM (DMEM (US Biological, D9800), 3.7 g/L NaHCO3, 10% dialyzed FBS (Life Technologies, 26400-044)) per well in a black 96-well plate with clear bottom (Corning, 3904). Twenty four hours after seeding, 10 μl of 6 μg/ml doxycycline (300 ng/ml final concentration) or water was added to each well. Twenty four hours after addition of doxycycline, media was exchanged to DMEM without pyruvate (DMEM (US Biological, D9802), 15.9 mg/L phenol red, 3.7 g/L NaHCO3, 10% dialyzed FBS (Life Technologies, 26400-044)), ±1 μM piericidin, ±1 μM antimycin, ±1 mM pyruvate and ±300 ng/ml doxycycline. After 0, 1, 2, 3 and 4 days, media was aspirated and cells were fixed by adding 100 μl of 4% paraformaldehyde in PBS and incubating at room temperature for at least 30 min. Paraformaldehyde solution was aspirated and cells were stained with 200 μl of 1 μg/ml Hoechst 33345. Plates were covered with sealing aluminum foil and stored at 4° C. before counting cells in each well with Molecular Dynamics IMAGEXPRESS® Ultra (see “Nuclei counting using Molecular Devices IMAGEXPRESS® Ultra,” below).
Two thousand HeLa Tet3G Luciferase cells were seeded in 200 μl of DMEM (DMEM (US Biological, D9800), 3.7 g/L NaHCO3, 10% dialyzed FBS (Life Technologies, 26400-044)) per well in a black 96-well plate with clear bottom (Corning, 3904). Twenty four hours after seeding, media was exchanged to DMEM without pyruvate (DMEM (US Biological, D9802), 15.9 mg/L phenol red, 3.7 g/L NaHCO3, 10% dialyzed FBS (Life Technologies, 26400-044))±1 μM piericidin, ±indicated concentrations of pyruvate, lactate, malate, oxaloacetate, nicotinamide mononucleotide ([…]) or PJ34. After 3 days, media was aspirated and cells were fixed by adding 100 μl of 4% paraformaldehyde in PBS and incubating at room temperature for at least 30 min. Paraformaldehyde solution was aspirated and cells were stained with 200 μl of 1 μg/ml Hoechst 33345. Plates were covered with sealing aluminum foil and stored at 4° C. before counting cells in each well with Molecular Dynamics IMAGEXPRESS® Ultra (see “Nuclei counting using Molecular Devices IMAGEXPRESS® Ultra,” below).
Images of 96-well plates with fixed cells stained with Hoechst 33345 were collected using Molecular Devices IMAGEXPRESS® Micro XLS. Four images were taken to cover the whole well. Images were analyzed and nuclei number per well was counted using CellProfiler 2.0 image analysis software (Carpenter, et al., Genome Biol., 7:R100, 2006; and Kamentsky, et al., Bioinformatics, 27:1179, 2011). […]

HeLa cells = assay: Tolerability of doxycycline-inducible expression in HeLa cells; assay type: cell-based, human
Description: Lentiviral infection was used to generate HeLa cells that expressed untargeted or mitochondria-targeted TPNOX (referred to as TPNOX and mitoTPNOX, respectively) under the control of a doxycycline-inducible promoter (TRE3G) (FIG. 16A).

Molecule	H2O2 relative to H2O production during catalytic cycle [1]	H2O2 produced (H2O2-forming rate compared to rate of NADH disappearance) ([1]; 350 μM NADH, 37° C., n=4)	rescue of proliferation defect caused by ethidium bromide (HeLa Tet3G cells; 30 ng/ml ethidium bromide)	rescue of proliferation defect caused by antimycin (HeLa Tet3G cells; 1 μM antimycin)	rescue of proliferation defect caused by piericidin (HeLa Tet3G cells)	rescue of proliferation defect caused by chloramphenicol (HeLa Tet3G cells; 10 μg/ml chloramphenicol)	tolerability of expression (cell morphology, viability, proliferation) (HeLa cells)
LbNOX: water-forming NADH oxidase endogenous to Lactobacillus brevis; tested with C-terminal FLAG tag (protein, listed as Lactobacillus brevis, C-terminal FLAG tag) KVTVVGCTHAGTFAIKQILAEHPDAEVTVYERNDVISFLSCGIALYLGGKVADPQGLFYSSPEELQKLGANVQMNHNVLAIDPDQKTVTVEDLTNHAQTTESYDKLVMTSGSWPIVPKIPGIDSDRVKLCKNWAHAQALIEDAKEAKRITVIGAGYIGAELAEAYSTTGHDVTLIDAMARVMPKYFDADFTDVIEQDYRDHGVQLALGETVESFTDSATGLTIKTDKNSYETDLAILCIGFRPNTDLLKGKVDMAPNGAIITDDYMRSSNPDIFAAGDSAAVHYNPTHQNAYIPLATNAVRQGILVGKNLVKPTVKYMGTQSSSGLALYDRTIVSTGLTLAAAKQQGLNAEQVIVEDNYRPEFMPSTEPVLMSLVFDPDTHRILGGALMSKYDVSQSANTLSVCIQNENTIDDLAMVDMLFQPNFDRPFNYLNILAQAAQAKVAQSVNA	1-2 % by mole	around 1.7±0.3%	rescued completely	rescued completely	rescued completely	rescued completely	–
TPNOX: NADPH-specific quintuple mutant (G159A/D177A/A178R/M179S/P184R) of LbNOX (protein) KVTVVGCTHAGTFAIKQILAEHPDAEVTVYERNDVISFLSCGIALYLGGKVADPQGLFYSSPEELQKLGANVQMNHNVLAIDPDQKTVTVEDLTNHAQTTESYDKLVMTSGSWPIVPKIPGIDSDRVKLCKNWAHAQALIEDAKEAKRITVIGAGYIAAELAEAYSTTGHDVTLIARSARVMRKYFDADFTDVIEQDYRDHGVQLALGETVESFTDSATGLTIKTDKNSYETDLAILCIGFRPNTDLLKGKVDMAPNGAIITDDYMRSSNPDIFAAGDSAAVHYNPTHQNAYIPLATNAVRQGILVGKNLVKPTVKYMGTQSSSGLALYDRTIVSTGLTLAAAKQQGLNAEQVIVEDNYRPEFMPSTEPVLMSLVFDPDTHRILGGALMSKYDVSQSANTLSVCIQNENTIDDLAMVDMLFQPNFDRPFNYLNILAQAAQAKVAQSVNA	–	–	–	–	not	–	safely tolerated
